Columns and labels:
[1] = target: KDR/flk-1 receptor on 293/KDR or PAE/KDR cells (UniProt P35968); experiment: cell-based or functional assay
[2] = target: S-peptide fragment of bovine pancreatic ribonuclease A (bovine); experiment: cell-based or functional assay

Chain of MBS-modified S-protein, 2-fold molar excess of sulfo-MBS (P61823 47-150): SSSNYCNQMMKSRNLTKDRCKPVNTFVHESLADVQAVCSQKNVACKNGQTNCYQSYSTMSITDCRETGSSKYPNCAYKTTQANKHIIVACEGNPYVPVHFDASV
Chain of MBS-modified S-protein, 20-fold molar excess of sulfo-MBS (P61823 47-150): as above
Chain of MBS-modified S-protein, 40-fold molar excess of sulfo-MBS (P61823 47-150): as above
Chain of MBS-modified S-protein, 10-fold molar excess of sulfo-MBS (P61823 47-150): as above
Chain of S-protein fragment of bovine ribonuclease (Sigma) (P61823 47-150): as above
Chain of KDR/flk-1 receptor on 293/KDR or PAE/KDR cells (P35968 20-1356 limits assumed): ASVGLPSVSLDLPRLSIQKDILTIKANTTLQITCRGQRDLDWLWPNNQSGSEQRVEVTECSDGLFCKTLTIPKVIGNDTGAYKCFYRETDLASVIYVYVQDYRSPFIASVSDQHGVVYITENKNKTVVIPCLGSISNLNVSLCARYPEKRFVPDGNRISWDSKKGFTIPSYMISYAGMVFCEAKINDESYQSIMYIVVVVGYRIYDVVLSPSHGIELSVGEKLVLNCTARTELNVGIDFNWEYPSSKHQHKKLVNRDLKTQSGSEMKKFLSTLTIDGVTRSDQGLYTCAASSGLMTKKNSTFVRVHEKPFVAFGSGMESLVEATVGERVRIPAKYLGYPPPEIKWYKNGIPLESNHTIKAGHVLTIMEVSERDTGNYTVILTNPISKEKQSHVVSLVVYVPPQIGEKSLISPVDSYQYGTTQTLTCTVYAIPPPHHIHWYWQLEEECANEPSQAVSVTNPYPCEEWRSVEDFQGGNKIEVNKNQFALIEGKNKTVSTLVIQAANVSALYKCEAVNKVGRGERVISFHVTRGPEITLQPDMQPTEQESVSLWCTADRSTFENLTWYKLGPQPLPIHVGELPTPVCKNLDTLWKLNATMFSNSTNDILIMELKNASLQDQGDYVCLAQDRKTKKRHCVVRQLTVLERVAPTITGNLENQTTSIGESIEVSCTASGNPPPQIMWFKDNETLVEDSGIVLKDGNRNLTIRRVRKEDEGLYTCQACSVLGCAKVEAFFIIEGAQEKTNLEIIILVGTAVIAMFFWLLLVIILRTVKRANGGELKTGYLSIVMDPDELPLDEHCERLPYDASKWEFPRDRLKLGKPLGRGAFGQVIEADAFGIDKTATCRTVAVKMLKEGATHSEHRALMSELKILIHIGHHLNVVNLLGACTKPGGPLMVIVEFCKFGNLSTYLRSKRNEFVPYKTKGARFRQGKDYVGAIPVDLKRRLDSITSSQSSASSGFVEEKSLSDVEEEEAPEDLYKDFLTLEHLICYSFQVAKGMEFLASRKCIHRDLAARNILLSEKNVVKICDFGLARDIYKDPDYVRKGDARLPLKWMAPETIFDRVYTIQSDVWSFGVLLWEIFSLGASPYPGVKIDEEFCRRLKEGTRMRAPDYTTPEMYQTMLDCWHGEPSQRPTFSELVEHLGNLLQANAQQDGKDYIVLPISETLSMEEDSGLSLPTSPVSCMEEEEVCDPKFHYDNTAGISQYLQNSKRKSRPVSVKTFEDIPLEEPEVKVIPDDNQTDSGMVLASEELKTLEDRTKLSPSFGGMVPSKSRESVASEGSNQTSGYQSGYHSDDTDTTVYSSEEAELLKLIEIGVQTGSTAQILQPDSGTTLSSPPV
Chain of Lip(Dox)-SP-FVEGF121 complex (P15692 other isoform, or with tags, fused parts or gaps): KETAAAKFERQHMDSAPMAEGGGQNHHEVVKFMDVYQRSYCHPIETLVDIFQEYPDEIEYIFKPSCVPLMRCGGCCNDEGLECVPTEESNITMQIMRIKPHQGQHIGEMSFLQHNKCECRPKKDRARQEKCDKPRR
Chain of Lip(Dox)-SP-FVEGF121 complex (P61823 47-150): as the sequence (P61823 47-150) above

Substance: Lip(Dox)-SP-FVEGF121 complex (from UniProt P15692 27-147; P61823 47-150)
- IC50 of growth inhibition of 293/KDR cells [1]: 5 nM

Substance: MBS-modified S-protein, 2-fold molar excess of sulfo-MBS (from UniProt P61823 47-150)
- Ribonuclease Activity (%), S-tag Rapid Assay Kit; SulphoMBS molar excess: 2 [2]: 57%

Substance: MBS-modified S-protein, 10-fold molar excess of sulfo-MBS (from UniProt P61823 47-150)
- Ribonuclease Activity (%), S-tag Rapid Assay Kit; SulphoMBS molar excess: 10 [2]: 38%

Substance: MBS-modified S-protein, 20-fold molar excess of sulfo-MBS (from UniProt P61823 47-150)
- Ribonuclease Activity (%), S-tag Rapid Assay Kit; SulphoMBS molar excess: 20 [2]: 36%

Substance: MBS-modified S-protein, 40-fold molar excess of sulfo-MBS (from UniProt P61823 47-150)
- Ribonuclease Activity (%), S-tag Rapid Assay Kit; SulphoMBS molar excess: 40 [2]: 25%

Substance: S-protein fragment of bovine ribonuclease (Sigma) (from UniProt P61823 47-150)
- Ribonuclease Activity (%), S-tag Rapid Assay Kit; SulphoMBS molar excess: none [2]: 100%
